# Test results as given in patent US20120115830A1 (QUEEN S UNIVERSITY OF BELFAST, published 2012).
# T1: XAP3 cloned in-frame into pACT plasmid (UniProt Q9BYM8 1-510)
# T1 construct: Mammalian two-hybrid construct expressed in L132 cells; also called XAP3 (pACT); not shown: fusion partner encoded by the pACT vector
# T1 sequence (looked up): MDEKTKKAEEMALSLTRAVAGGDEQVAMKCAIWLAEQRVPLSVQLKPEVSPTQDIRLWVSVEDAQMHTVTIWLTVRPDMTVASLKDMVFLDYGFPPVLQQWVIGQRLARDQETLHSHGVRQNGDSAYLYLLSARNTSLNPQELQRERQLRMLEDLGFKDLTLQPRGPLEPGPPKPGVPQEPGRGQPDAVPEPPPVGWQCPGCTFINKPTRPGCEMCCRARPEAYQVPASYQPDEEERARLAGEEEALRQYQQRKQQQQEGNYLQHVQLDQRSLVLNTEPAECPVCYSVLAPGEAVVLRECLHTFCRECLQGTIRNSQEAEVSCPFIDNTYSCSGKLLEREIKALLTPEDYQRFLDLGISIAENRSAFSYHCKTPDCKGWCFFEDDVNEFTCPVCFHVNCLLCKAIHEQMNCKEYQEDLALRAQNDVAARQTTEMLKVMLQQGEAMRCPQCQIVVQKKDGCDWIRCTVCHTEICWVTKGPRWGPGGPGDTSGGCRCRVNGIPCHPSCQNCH
# T2: USP19 cloned in-frame into pACT plasmid (UniProt O94966 1-1318)
# T2 sequence (looked up): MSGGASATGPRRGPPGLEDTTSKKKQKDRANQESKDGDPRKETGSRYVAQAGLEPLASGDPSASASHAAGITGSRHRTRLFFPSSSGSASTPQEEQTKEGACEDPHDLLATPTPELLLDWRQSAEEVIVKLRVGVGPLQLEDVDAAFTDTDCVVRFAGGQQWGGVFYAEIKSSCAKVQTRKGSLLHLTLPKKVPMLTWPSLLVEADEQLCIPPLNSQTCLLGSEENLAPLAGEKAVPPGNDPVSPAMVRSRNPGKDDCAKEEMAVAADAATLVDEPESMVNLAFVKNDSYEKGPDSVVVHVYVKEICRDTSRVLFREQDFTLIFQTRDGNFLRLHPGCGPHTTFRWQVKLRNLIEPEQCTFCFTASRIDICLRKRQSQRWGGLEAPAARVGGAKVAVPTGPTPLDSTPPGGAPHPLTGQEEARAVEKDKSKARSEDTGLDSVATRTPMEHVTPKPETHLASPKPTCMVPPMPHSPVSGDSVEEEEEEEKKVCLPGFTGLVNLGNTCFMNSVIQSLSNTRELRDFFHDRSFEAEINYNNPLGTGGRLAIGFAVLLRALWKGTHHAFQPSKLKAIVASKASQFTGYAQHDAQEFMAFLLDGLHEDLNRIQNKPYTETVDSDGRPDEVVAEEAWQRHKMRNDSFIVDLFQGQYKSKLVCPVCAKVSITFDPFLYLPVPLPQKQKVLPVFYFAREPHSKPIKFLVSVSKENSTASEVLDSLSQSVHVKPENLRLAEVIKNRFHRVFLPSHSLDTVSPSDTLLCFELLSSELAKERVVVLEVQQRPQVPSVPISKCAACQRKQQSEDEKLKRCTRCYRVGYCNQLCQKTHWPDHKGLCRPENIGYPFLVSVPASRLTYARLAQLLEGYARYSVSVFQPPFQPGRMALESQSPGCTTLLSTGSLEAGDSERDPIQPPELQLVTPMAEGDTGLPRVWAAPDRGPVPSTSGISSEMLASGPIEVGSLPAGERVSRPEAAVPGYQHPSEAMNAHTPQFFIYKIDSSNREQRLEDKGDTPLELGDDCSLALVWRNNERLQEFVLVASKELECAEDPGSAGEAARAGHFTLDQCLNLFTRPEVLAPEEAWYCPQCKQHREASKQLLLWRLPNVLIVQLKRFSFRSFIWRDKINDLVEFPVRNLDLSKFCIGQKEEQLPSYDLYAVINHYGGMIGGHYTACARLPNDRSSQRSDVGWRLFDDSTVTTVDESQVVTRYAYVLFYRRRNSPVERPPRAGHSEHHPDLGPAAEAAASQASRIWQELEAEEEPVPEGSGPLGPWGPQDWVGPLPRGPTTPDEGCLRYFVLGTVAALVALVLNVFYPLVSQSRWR
# B1: FKBPLΔ200 (other, not shown: large carriers)
# chain: METPPVNTIGEKDTSQPQQEWEKNLRENLDSVIQIRQQPRDPPTETLELEVSPDPASQILEHTQGAEKLVAELEGDSHKSHGSTSQMPEALQASDLWYCPDGSFVKKIVIRGHGLDKPKLGSCCRVLALGFPFGSGPPEGWTELTMGVGPWREETWGELIEKCLESMCQGEEAELQLPGHSGPPVRLTLASFTQGRDSWE
# B2: Full length FKBPL cloned in-frame into pBIND plasmid (other, not shown: large carriers)
# chain: METPPVNTIGEKDTSQPQQEWEKNLRENLDSVIQIRQQPRDPPTETLELEVSPDPASQILEHTQGAEKLVAELEGDSHKSHGSTSQMPEALQASDLWYCPDGSFVKKIVIRGHGLDKPKLGSCCRVLALGFPFGSGPPEGWTELTMGVGPWREETWGELIEKCLESMCQGEEAELQLPGHSGPPVRLTLASFTQGRDSWELETSEKEALAREERARGTELFRAGNPEGAARCYGRALRLLLTLPPPGPPERTVLHANLAACQLLLGQPQLAAQSCDRVLEREPGHLKALYRRGVAQAALGNLEKATADLKKVLAIDPKNRAAQEELGKVVIQGKNQDAGLAQGLRKMFG
# What was measured:
# [1] = target: T1, XAP3 cloned in-frame into pACT plasmid; assay: mammalian two-hybrid (firefly luciferase) in L132 cells
# Procedure: In order to confirm the interactions detected using the yeast two-hybrid system and determine that the interaction can take place in a biologically relevant model, the Checkmate Mammalian Two-Hybrid System (Promega, Cat no. E2440) was used. Full length FKBPL and a variety of FKBPL mutants were cloned ‘in-frame’ into pBIND plasmid according to manufacturer's instructions. XAP3 and USP19 were cloned ‘in-frame’ into pACT plasmid according to manufacturer's instructions. 2×10⁴ L132 cells were plated in triplicate into a 96 well plate for each transfection condition and incubated overnight at 37° C. with MEM containing 10% FCS. FKBPL, XAP3 and USP19 plasmids were transfected into cells using Lipofectamine Plus (Invitrogen, Cat no.) and incubated at 37° C. for 24 h. The plate was allowed to equilibrate to room temperature then 75 μl room temperature Dual-Glo Luciferase Reagent (Promega, Cat no. E2920) was added to each well, mixed thoroughly and wrapped in tinfoil. After 15 minutes incubation at room temperature, the Firefly luminescence was measured using a GENios platereader (Tecan). […] After 15 minutes incubation at room temperature, the Renilla luminescence was measured.
# Following correction, increased firefly luminescence over self-activations controls indicated a positive interaction between the proteins.
# [2] = target: T2, USP19 cloned in-frame into pACT plasmid; assay: cell-based or functional assay
# [3] = target: T1, XAP3 cloned in-frame into pACT plasmid; assay: cell-based or functional assay
Binder,binding result [1],induction of firefly luminescence [2] [fold],induction of firefly luminescence [3] [fold]
B1,no binding,–,–
B2,–,10,20
